B1: RIPK4 (parent)
chain: VSVNAQTLDGRTPLHLAAQRGHYR
B2: C1orf137 (parent)
chain: RQHHHQSSFPGSLPQETNLTLKVC
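Also: lentivirally expressed fusions sorted by FACS into six bins by GFP to DsRed ratio, PSI derived from sequencing read proportions per bin multiplied by bin number.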

The variants in one data set derive from B1. Description: protein stability index of a GFP-peptide fusion (GPS, HEK-293T) (PSI 1-6); higher = more stable. Conditions: c terminus: a fixed tail appended.
As for VSVNAQTEDGRTPLHLAAQRGHYR [L8E], the protein stability index is 4.33.
The same measure, in the same setting: to VSVNAQTYDGRTPLHLAAQRGHYR [L8Y] belongs 3.07.
On the same count and under the same terms, to VSVNAQTLDGRTPLFLAAQRGHYR [H15F] belongs 2.58; to VSVNAQTLDGRTPLGLAAQRGHYR [H15G], 3.08.
For VSVNAQTLDGRTPLRLAAQRGHYR [H15R], the protein stability index worked out at 3.89.
On the same count and under the same terms, to VSVNAQTLDGRTPLVLAAQRGHYR [H15V] belongs 3.2; to VSVNAQTLDGRTPLTLAAQRGHYR [H15T], 3.73.
On to VSVNAQTLDGRTPLHLAAQRGHRR [Y23R], for which the protein stability index amounted to 4.19.
The same measure, in the same setting: to VSVNAQTLDGRTPLHLAAQRGHFR [Y23F] belongs 2.98; to VSVNAQTLDGRTPLHLAAQRGHER [Y23E], 4.39.
The same measure, in the same setting: to VSVNAQTLDGRTPLHLAAQRGHSR [Y23S] belongs 3.83; to VSVNAQTLDGRTPLHLAAQRGHHR [Y23H], 3.42.
As to VSVNAQTLDGRTPLHLAAQRGHWR [Y23W], the protein stability index is 3.07.
As for VSVNPQTLDGRTPLHLAAQRGHYR [A5P], the protein stability index was 3.12.
Still for that read-out and setting: to VSVNQQTLDGRTPLHLAAQRGHYR [A5Q] belongs 3.13; to VSVNEQTLDGRTPLHLAAQRGHYR [A5E], 3.73.
On the same count and under the same terms, to VSVNDQTLDGRTPLHLAAQRGHYR [A5D] belongs 4.28; to VSLNAQTLDGRTPLHLAAQRGHYR [V3L], 3.35; to VSQNAQTLDGRTPLHLAAQRGHYR [V3Q], 4.22.
Same read-out and setting: to VSYNAQTLDGRTPLHLAAQRGHYR [V3Y] belongs 2.75.
For the variant VSINAQTLDGRTPLHLAAQRGHYR [V3I], the protein stability index was determined as 2.67.
On the same count and under the same terms, to VSTNAQTLDGRTPLHLAAQRGHYR [V3T] belongs 3.53; to VSHNAQTLDGRTPLHLAAQRGHYR [V3H], 4.67; to VSENAQTLDGRTPLHLAAQRGHYR [V3E], 4.86.
The same measure, in the same setting: to VSWNAQTLDGRTPLHLAAQRGHYR [V3W] belongs 2.69; to VSRNAQTLDGRTPLHLAAQRGHYR [V3R], 4.33; to VSVNAQTLDGRTPLHLAAQRGNYR [H22N], 3.48.
On the same count and under the same terms, to VSVNAQTLDGRTPLHLAAQRGRYR [H22R] belongs 4.29.
Regarding VSVNAQTLDGRTPLHLAAQRGDYR [H22D], the protein stability index was 3.23.
Regarding VSVNAQTLDGRTPLHLAAQRGPYR [H22P], the protein stability index turned out to be 2.89.
Regarding VSVNAQTLDGRTPLHLAAQRGLYR [H22L], the protein stability index is 2.69.
On to VSVNAQTLDGRTPLHRAAQRGHYR [L16R], for which the protein stability index was 3.96.
The same measure, in the same setting: to VSVNAQTLDGRTPLHGAAQRGHYR [L16G] belongs 3.45; to VSVNAQTLDGRTPLHQAAQRGHYR [L16Q], 3.83.
With VSVNAQTLDGRTPLHAAAQRGHYR [L16A], the protein stability index was 3.82.
For the variant VSVNAQTLDGRTPLHKAAQRGHYR [L16K], the protein stability index was determined as 3.88.
On the same count and under the same terms, to VSVNAQTLDGRTPLHFAAQRGHYR [L16F] belongs 3.11; to VSVNAQTLDGRTPLHLWAQRGHYR [A17W], 2.45; to VSVNAQTLDGRTPLHLCAQRGHYR [A17C], 3.15.
On the same count and under the same terms, to VSVNAQTLDGRTPLHLPAQRGHYR [A17P] belongs 3.67.
For the variant VSVNAQTLDGRTPLHLVAQRGHYR [A17V], the protein stability index is 3.35.
VSVNAQTLDGRTPLHLNAQRGHYR [A17N]: the protein stability index amounted to 3.38.
Turning to VSVNAQTLDGRTPLHLGAQRGHYR [A17G], the protein stability index was 3.51.
Still for that read-out and setting: to VSVNAQTLDGRTPQHLAAQRGHYR [L14Q] belongs 3.75; to VSVNAQTLDGRTPSHLAAQRGHYR [L14S], 3.83; to VSVNAQTLDGRTPRHLAAQRGHYR [L14R], 3.7.
Take VSVNAQTLDGRTPAHLAAQRGHYR [L14A]: the protein stability index amounted to 4.07.
Same read-out and setting: to VSVNAQTLDGYTPLHLAAQRGHYR [R11Y] belongs 2.98; to VSVNAQTLDGKTPLHLAAQRGHYR [R11K], 3.51.
On the same count and under the same terms, to VSVNAQTLDGDTPLHLAAQRGHYR [R11D] belongs 3.31; to VSVNAQTLDGATPLHLAAQRGHYR [R11A], 3.5; to VSVNAQTLDGGTPLHLAAQRGHYR [R11G], 2.99.
Consider VSVNAQTLDGHTPLHLAAQRGHYR [R11H], for which the protein stability index stood at 3.11.
The same measure, in the same setting: to VSVNAQTLDGTTPLHLAAQRGHYR [R11T] belongs 2.71.
Still for that read-out and setting: to VSVNAQTLDGWTPLHLAAQRGHYR [R11W] belongs 2.85.
With VSVNAQTLDGQTPLHLAAQRGHYR [R11Q], the protein stability index was 3.62.
Still for that read-out and setting: to VSVQAQTLDGRTPLHLAAQRGHYR [N4Q] belongs 3.41; to VSVHAQTLDGRTPLHLAAQRGHYR [N4H], 3.46; to VSVAAQTLDGRTPLHLAAQRGHYR [N4A], 3.17.
Still for that read-out and setting: to VSVKAQTLDGRTPLHLAAQRGHYR [N4K] belongs 3.51; to VSVEAQTLDGRTPLHLAAQRGHYR [N4E], 3.17; to VSVWAQTLDGRTPLHLAAQRGHYR [N4W], 2.06.
As for VSVMAQTLDGRTPLHLAAQRGHYR [N4M], the protein stability index is 2.66.
Same read-out and setting: to VSVTAQTLDGRTPLHLAAQRGHYR [N4T] belongs 3.04; to VSVVAQTLDGRTPLHLAAQRGHYR [N4V], 2.53.
On the same count and under the same terms, to VSVSAQTLDGRTPLHLAAQRGHYR [N4S] belongs 2.86; to VSVCAQTLDGRTPLHLAAQRGHYR [N4C], 3.18.

Variants of B2 are the subject of a further data set. The description is as above. Conditions: c terminus: a fixed tail appended.
For the variant RQHHHQSSFPGSLPQETNLTLYVC [K22Y], the protein stability index is 2.28.
As to RQHHHQSSFPGSLPQETNLTLNVC [K22N], the protein stability index was found to be 2.92.
Still for that read-out and setting: to RQHHHQSSFPGSLPQETNLTLFVC [K22F] belongs 2.14.
Take RQHHHQSSFPGSLPQETNLTLKHC [V23H]: the protein stability index was determined as 4.2.
On to RQHHHQSSFPGSLVQETNLTLKVC [P14V], for which the protein stability index was 2.55.
Regarding RQHHHQSSFPGSLMQETNLTLKVC [P14M], the protein stability index came out at 2.02.
Take PQHHHQSSFPGSLPQETNLTLKVC [R1P]: the protein stability index turned out to be 2.79.
For RQHHHQSSGPGSLPQETNLTLKVC [F9G], the protein stability index came to 4.03.
The same measure, in the same setting: to RQHHHQSSCPGSLPQETNLTLKVC [F9C] belongs 3.16; to RQHHHQSSFPGSYPQETNLTLKVC [L13Y], 2.66; to RQHHHQSSFPGSHPQETNLTLKVC [L13H], 3.21.
Regarding RQHHHQSSFPGSLPPETNLTLKVC [Q15P], the protein stability index was determined as 3.05.
Still for that read-out and setting: to RQHHHQSSFPGSLPQETNATLKVC [L19A] belongs 4.07; to RQHHHQSSFPISLPQETNLTLKVC [G11I], 2.85.
Same read-out and setting: to RQHHHQSSFPGSLPQETNLTLKVE [C24E] belongs 4.19.
The same measure, in the same setting: to RQHHHQSSFPGSLPQETNLTLKVQ [C24Q] belongs 3.37.
As for RQHHHQSSFPGSLPQPTNLTLKVC [E16P], the protein stability index amounted to 2.99.
The same measure, in the same setting: to RSHHHQSSFPGSLPQETNLTLKVC [Q2S] belongs 2.43; to RIHHHQSSFPGSLPQETNLTLKVC [Q2I], 2.28; to RRHHHQSSFPGSLPQETNLTLKVC [Q2R], 3.04.
Still for that read-out and setting: to RQHHKQSSFPGSLPQETNLTLKVC [H5K] belongs 2.34.
The same measure, in the same setting: to RQHHHQSSFPGSLPQETRLTLKVC [N18R] belongs 2.29; to RQHHHQSSFPGELPQETNLTLKVC [S12E], 3.46.
In the case of RQHHHQSSFPGHLPQETNLTLKVC [S12H], the protein stability index worked out at 2.38.
Still for that read-out and setting: to RQHAHQSSFPGSLPQETNLTLKVC [H4A] belongs 2.94; to RQHHHQSSFPGSLPQETNLTVKVC [L21V], 3.23.
Still for that read-out and setting: to RQHHHQSSFPGSLPQETNLTDKVC [L21D] belongs 4.43.
